Experimental data reported in US20240409647A1 (SINOMAB BIOSCIENCE, published 2024).

Tests used:
[1] = target: T1, human IL-17RB protein (recombinant, R&D systems) (human); assay: ELISA, coated receptor; SM17 at 0.016 µg/mL; well 1
T1 construct: Bought protein; also called hIL17RB
T1 sequence (Q9NRM6 whole entry, looked up): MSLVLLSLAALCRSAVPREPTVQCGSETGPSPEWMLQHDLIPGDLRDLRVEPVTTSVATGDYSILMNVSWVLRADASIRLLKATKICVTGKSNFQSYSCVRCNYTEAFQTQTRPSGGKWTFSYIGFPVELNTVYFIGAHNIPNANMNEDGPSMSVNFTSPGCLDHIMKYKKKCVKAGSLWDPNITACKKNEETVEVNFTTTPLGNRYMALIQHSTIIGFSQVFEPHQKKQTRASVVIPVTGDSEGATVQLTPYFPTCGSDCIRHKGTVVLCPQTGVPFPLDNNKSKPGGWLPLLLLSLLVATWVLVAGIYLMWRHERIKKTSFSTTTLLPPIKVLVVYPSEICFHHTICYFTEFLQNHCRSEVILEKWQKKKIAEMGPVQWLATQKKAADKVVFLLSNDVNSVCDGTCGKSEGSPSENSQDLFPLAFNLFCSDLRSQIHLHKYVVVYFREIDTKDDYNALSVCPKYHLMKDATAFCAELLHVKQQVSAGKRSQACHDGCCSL

[2] = target: T2, human IL-17 receptor subunit A (human, UniProt Q96F46 33-320); assay: as above
T2 construct: also called IL17RA; hIL17RA

[3] = target: T3, human IL-17 receptor subunit C (human, UniProt Q8NAC3-2 21-467, limits assumed); assay: as above
T3 construct: also called IL17RC; hIL17RC
T3 sequence (looked up): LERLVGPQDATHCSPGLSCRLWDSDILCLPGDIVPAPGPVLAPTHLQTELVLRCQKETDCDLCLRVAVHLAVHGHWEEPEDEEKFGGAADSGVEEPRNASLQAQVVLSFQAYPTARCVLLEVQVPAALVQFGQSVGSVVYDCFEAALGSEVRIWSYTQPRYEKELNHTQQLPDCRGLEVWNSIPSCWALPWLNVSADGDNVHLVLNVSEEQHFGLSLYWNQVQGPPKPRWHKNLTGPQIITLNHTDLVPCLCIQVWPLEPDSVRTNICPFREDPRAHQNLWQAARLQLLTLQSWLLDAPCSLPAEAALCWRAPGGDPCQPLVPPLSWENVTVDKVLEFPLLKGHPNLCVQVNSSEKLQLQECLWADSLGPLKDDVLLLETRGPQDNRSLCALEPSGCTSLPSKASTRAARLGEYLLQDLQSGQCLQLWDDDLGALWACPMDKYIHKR

[4] = target: T4, human IL-17 receptor subunit D (human, UniProt Q8NFM7 28-299, limits assumed); assay: as above
T4 construct: also called IL17RD; hIL 17RD
T4 sequence (looked up): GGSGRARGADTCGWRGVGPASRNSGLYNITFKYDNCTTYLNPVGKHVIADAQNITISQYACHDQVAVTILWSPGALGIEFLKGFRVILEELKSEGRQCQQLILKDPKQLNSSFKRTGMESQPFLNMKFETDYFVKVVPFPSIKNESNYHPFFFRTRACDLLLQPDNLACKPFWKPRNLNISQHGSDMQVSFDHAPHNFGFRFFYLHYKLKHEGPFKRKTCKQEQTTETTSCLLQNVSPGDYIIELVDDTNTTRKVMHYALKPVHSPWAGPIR

[5] = target: T5, human IL-17 receptor subunit E (human, UniProt Q8NFR9 24-454, limits assumed); assay: as above
T5 construct: also called hIL17RE
T5 sequence (looked up): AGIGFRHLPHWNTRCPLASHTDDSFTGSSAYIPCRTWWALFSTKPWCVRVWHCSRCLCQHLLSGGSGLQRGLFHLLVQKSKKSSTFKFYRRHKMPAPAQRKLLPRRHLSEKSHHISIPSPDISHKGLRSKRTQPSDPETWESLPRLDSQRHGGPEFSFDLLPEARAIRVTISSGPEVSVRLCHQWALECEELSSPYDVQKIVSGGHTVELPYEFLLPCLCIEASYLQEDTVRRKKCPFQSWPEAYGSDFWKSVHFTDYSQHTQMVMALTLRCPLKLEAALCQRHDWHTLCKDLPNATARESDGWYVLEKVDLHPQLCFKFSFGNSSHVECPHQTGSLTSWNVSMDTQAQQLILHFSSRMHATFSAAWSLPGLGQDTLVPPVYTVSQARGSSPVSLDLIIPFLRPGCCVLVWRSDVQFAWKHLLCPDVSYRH

[6] = target: T1, human IL-17RB protein (recombinant, R&D …); assay: ELISA, coated receptor; SM17 at 0.00064 µg/mL; well 2
[7] = target: T2, human IL-17 receptor subunit A; assay: as above
[8] = target: T3, human IL-17 receptor subunit C; assay: as above
[9] = target: T4, human IL-17 receptor subunit D; assay: as above
[10] = target: T5, human IL-17 receptor subunit E; assay: as above
[11] = target: T1, human IL-17RB protein (recombinant, R&D …); assay: BLI (Octet RED96), SM17 captured via anti-human Fab CH1, IL17RB in solution; trial 2
Description: Irrelevant antibody (SM03, anti-human CD22 chimeric IgG1 antibody, SinoMab BioScience Limited) was used as the control reference.

B1: SM17 (antibody, human IgG4 S228P, kappa, V domains shown)
VH: QVQLVQSGAEVKKPGASVKVSCKASGYTFISYWMNWVRQAPGQGLEWMGRIDPYDSEIQYNQKFKDRVTMTRDTSISTAYMELSRLRSDDTAVYYCARSGGFDWFAYWGQGTLVTVSS
VL: DIQMTQSPSSLSASVGDRVTITCRASENINSNLAWYQQKPGKAPKLLLYDVTNLADGVPSRFSGSGSGTDYTLTISSLQPEDFATYYCQHFWGPPYTFGGGTKVEIKR
notes: other paragraphs and claim 15 call the same entries VH and VL; also called humanized anti-IL17RB monoclonal antibody
Question: Which “OD 450 nm Absorption” value [1] does the source give for B1 here?
Answer: Its value is 0.35 OD450.

Question: And the “OD 450 nm Absorption” value [2]?
Answer: The value was 0.01 OD450.

Question: And the “OD 450 nm Absorption” value [3]?
Answer: Its value is 0.09 OD450.

Question: What about the “OD 450 nm Absorption” value [4] of the same binder?
Answer: Its value is 0.07 OD450.

Question: And the “OD 450 nm Absorption” value [5]?
Answer: The value was 0 OD450.

Question: And the “OD 450 nm Absorption” value [6]?
Answer: Its value is 0.07 OD450.

Question: And the “OD 450 nm Absorption” value [7]?
Answer: The value was 0.05 OD450.

Question: And the “OD 450 nm Absorption” value [8]?
Answer: Its value is 0.08 OD450.

Question: And the “OD 450 nm Absorption” value [9]?
Answer: Its value is 0.02 OD450.

Question: What about the “OD 450 nm Absorption” value [10] of the same binder?
Answer: Its value is -0.16 OD450.

Question: And the Kd [11]?
Answer: The Kd was 0.546 nM.

Question: And the koff [11]?
Answer: The koff was 9.98e-05 s⁻¹.

Question: And the kon [11]?
Answer: The kon was 183000 M⁻¹ s⁻¹.
